The sequences below were run on Escherichia coli TOP10 (assay: shrunken log2 fold change of peptide-encoding DNA abundance (4.5 h post-induction vs induction); higher = less antimicrobial activity (less host growth inhibition)). Settings: time post-induction: 4.5 h; library: site-saturation at positions 5, 18, 19, 20.
For RRIRQRPPRLPRPRPRPQEHPRP, the “shrunken log2 fold change” value was -0.942. RRIRQRPPRLPRPRPRPCGTPRP was tested, and the “shrunken log2 fold change” value was 0.0105. For RRIRGRPPRLPRPRPRPQMYPRP, the “shrunken log2 fold change” value was 0.0854. For RRIRWRPPRLPRPRPRPRGGPRP, the “shrunken log2 fold change” value was 0.984. In the case of RRIRKRPPRLPRPRPRPQAMPRP, the “shrunken log2 fold change” value is reported as 0.146. RRIRPRPPRLPRPRPRPCNPPRP was tested, and the “shrunken log2 fold change” value was -0.0662. In the case of RRIRVRPPRLPRPRPRPTLRPRP, the “shrunken log2 fold change” value is reported as 0.102. With RRIRMRPPRLPRPRPRPTVKPRP the “shrunken log2 fold change” value was -0.0616. For RRIRVRPPRLPRPRPRPAFFPRP, the “shrunken log2 fold change” value was 0.084. In the case of RRIRWRPPRLPRPRPRPDRKPRP, the “shrunken log2 fold change” value is reported as -0.0752. In the case of RRIRLRPPRLPRPRPRPMDDPRP, the “shrunken log2 fold change” value is reported as -0.117. RRIRPRPPRLPRPRPRPDRAPRP was tested, and the “shrunken log2 fold change” value was 0.622. In the case of RRIRDRPPRLPRPRPRPLMEPRP, the “shrunken log2 fold change” value is reported as 0.117. In the case of RRIRRRPPRLPRPRPRPHIYPRP, the “shrunken log2 fold change” value is reported as -0.0628. For RRIRTRPPRLPRPRPRPAECPRP, the “shrunken log2 fold change” value was -0.112. For RRIRSRPPRLPRPRPRPSHVPRP, the “shrunken log2 fold change” value was -0.3. RRIRWRPPRLPRPRPRPVVQPRP was tested, and the “shrunken log2 fold change” value was -0.131. In the case of RRIRWRPPRLPRPRPRPQTPPRP, the “shrunken log2 fold change” value is reported as 1.07. For RRIRFRPPRLPRPRPRPWFQPRP, the “shrunken log2 fold change” value was -0.285. For RRIRARPPRLPRPRPRPFSDPRP, the “shrunken log2 fold change” value was -0.169. For RRIRVRPPRLPRPRPRPIWPPRP, the “shrunken log2 fold change” value was -0.0228. For RRIRERPPRLPRPRPRPFDHPRP, the “shrunken log2 fold change” value was 0.0195. In the case of RRIRYRPPRLPRPRPRPTIAPRP, the “shrunken log2 fold change” value is reported as -0.338. With RRIRYRPPRLPRPRPRPIFYPRP the “shrunken log2 fold change” value was -0.638. RRIRWRPPRLPRPRPRPFNHPRP was tested, and the “shrunken log2 fold change” value was -0.405. For RRIRFRPPRLPRPRPRPAVFPRP, the “shrunken log2 fold change” value was 0.259. With RRIRMRPPRLPRPRPRPWGTPRP the “shrunken log2 fold change” value was 0.254. RRIRTRPPRLPRPRPRPDTMPRP was tested, and the “shrunken log2 fold change” value was 0.0881. RRIRHRPPRLPRPRPRPWRHPRP was tested, and the “shrunken log2 fold change” value was -0.00865. RRIRHRPPRLPRPRPRPRNQPRP was tested, and the “shrunken log2 fold change” value was 0.0527. For RRIRARPPRLPRPRPRPYNCPRP, the “shrunken log2 fold change” value was -0.0254. For RRIRQRPPRLPRPRPRPQWWPRP, the “shrunken log2 fold change” value was 0.0549. RRIRIRPPRLPRPRPRPPADPRP was tested, and the “shrunken log2 fold change” value was 0.271. In the case of RRIRTRPPRLPRPRPRPSTWPRP, the “shrunken log2 fold change” value is reported as -0.176. With RRIRIRPPRLPRPRPRPTRIPRP the “shrunken log2 fold change” value was 0.0411. RRIRVRPPRLPRPRPRPDMHPRP was tested, and the “shrunken log2 fold change” value was -0.107. RRIRARPPRLPRPRPRPVASPRP was tested, and the “shrunken log2 fold change” value was 0.595. RRIRIRPPRLPRPRPRPHRGPRP was tested, and the “shrunken log2 fold change” value was -0.00841. In the case of RRIRQRPPRLPRPRPRPSVFPRP, the “shrunken log2 fold change” value is reported as -0.143. For RRIRYRPPRLPRPRPRPIWHPRP, the “shrunken log2 fold change” value was -1.23. For RRIRPRPPRLPRPRPRPVGRPRP, the “shrunken log2 fold change” value was 0.0963. With RRIRWRPPRLPRPRPRPPIFPRP the “shrunken log2 fold change” value was 0.488. With RRIRWRPPRLPRPRPRPCDHPRP the “shrunken log2 fold change” value was -0.00122. In the case of RRIRWRPPRLPRPRPRPNWFPRP, the “shrunken log2 fold change” value is reported as 0.156. With RRIRWRPPRLPRPRPRPPASPRP the “shrunken log2 fold change” value was 0.319. With RRIRNRPPRLPRPRPRPTIAPRP the “shrunken log2 fold change” value was -0.277. With RRIRYRPPRLPRPRPRPIPCPRP the “shrunken log2 fold change” value was -0.156. RRIRDRPPRLPRPRPRPKSYPRP was tested, and the “shrunken log2 fold change” value was 0.0134. For RRIRRRPPRLPRPRPRPWDTPRP, the “shrunken log2 fold change” value was -0.139. RRIRWRPPRLPRPRPRPHYPPRP was tested, and the “shrunken log2 fold change” value was -0.225. RRIRSRPPRLPRPRPRPMEMPRP was tested, and the “shrunken log2 fold change” value was -0.0909. In the case of RRIRCRPPRLPRPRPRPDQTPRP, the “shrunken log2 fold change” value is reported as -0.00778. RRIRERPPRLPRPRPRPNHRPRP was tested, and the “shrunken log2 fold change” value was -0.101. In the case of RRIRTRPPRLPRPRPRPQLVPRP, the “shrunken log2 fold change” value is reported as 0.0727. For RRIRRRPPRLPRPRPRPIHVPRP, the “shrunken log2 fold change” value was 0.03. In the case of RRIRHRPPRLPRPRPRPQVWPRP, the “shrunken log2 fold change” value is reported as -0.112. In the case of RRIRYRPPRLPRPRPRPSDIPRP, the “shrunken log2 fold change” value is reported as -0.0657. In the case of RRIRFRPPRLPRPRPRPMENPRP, the “shrunken log2 fold change” value is reported as -0.0803. RRIRSRPPRLPRPRPRPIILPRP was tested, and the “shrunken log2 fold change” value was -0.617. In the case of RRIRERPPRLPRPRPRPFPHPRP, the “shrunken log2 fold change” value is reported as -0.15. In the case of RRIRMRPPRLPRPRPRPPIIPRP, the “shrunken log2 fold change” value is reported as -0.306. With RRIRQRPPRLPRPRPRPDQIPRP the “shrunken log2 fold change” value was 0.00408. RRIRPRPPRLPRPRPRPNKRPRP was tested, and the “shrunken log2 fold change” value was -0.101. For RRIRYRPPRLPRPRPRPLNDPRP, the “shrunken log2 fold change” value was -0.0303. For RRIRNRPPRLPRPRPRPELAPRP, the “shrunken log2 fold change” value was 0.0428. In the case of RRIRERPPRLPRPRPRPIRMPRP, the “shrunken log2 fold change” value is reported as -0.00149. With RRIRERPPRLPRPRPRPQFAPRP the “shrunken log2 fold change” value was -0.148. RRIRSRPPRLPRPRPRPYIKPRP was tested, and the “shrunken log2 fold change” value was -0.234. RRIRCRPPRLPRPRPRPWNWPRP was tested, and the “shrunken log2 fold change” value was -0.0303. With RRIRVRPPRLPRPRPRPGRLPRP the “shrunken log2 fold change” value was -0.0194. RRIRIRPPRLPRPRPRPHVIPRP was tested, and the “shrunken log2 fold change” value was -0.0939. For RRIRTRPPRLPRPRPRPYIWPRP, the “shrunken log2 fold change” value was -0.329. RRIRVRPPRLPRPRPRPKSSPRP was tested, and the “shrunken log2 fold change” value was -0.0704. With RRIRSRPPRLPRPRPRPTGMPRP the “shrunken log2 fold change” value was 0.0395. With RRIRDRPPRLPRPRPRPGLWPRP the “shrunken log2 fold change” value was 1.37.
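Also: peptides expressed intracellularly from a pBAD plasmid library in pooled LB shake-flask culture, induced with 0.3% L-arabinose, DNA abundance read by NGS, three biological replicates, DESeq2 with apeglm shrinkage.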
